Assay results taken from patent US20120042399A1.

What was measured:
[1] = biological target: PASD1(2) (…) presented by the HHD chimeric monochain MHC class I molecule (human; mouse)
[2] = biological target: PASD1(1) (…) presented by the HHD chimeric monochain MHC class I molecule (human; mouse)
[3] = biological target: PASD1(1) (…) presented by the HHD chimeric monochain MHC class I molecule (human; mouse); remark: listed apart in the source
[4] = biological target: PASD1(1) (…) presented by the HHD chimeric monochain MHC class I molecule (human; mouse); remark: listed apart in the source

How did the IFNγ-secreting spot-forming cells ex vivo (ELISPOT) (SFCs/10^6 cells) [1] turn out when “splenocytes from HHD mice vaccinated with p.DOM-PASD1(2) (cells without a defined receptor)” was run?
The IFNγ-secreting spot-forming cells ex vivo (ELISPOT) (SFCs/10^6 cells) was 53.

With “splenocytes from HHD mice vaccinated with p.DOM-PASD1FL (cells without a defined receptor)” as the substance, how does the IFNγ-secreting spot-forming cells ex vivo (ELISPOT) (SFCs/10^6 splenocytes) [2] read?
Its IFNγ-secreting spot-forming cells ex vivo (ELISPOT) (SFCs/10^6 splenocytes) is 756.

For “splenocytes from HHD mice vaccinated with p.DOM-PASD1(1) (cells without a defined receptor)”, which IFNγ-secreting spot-forming cells ex vivo (ELISPOT) (SFCs/10^6 cells) [3] is on record?
The IFNγ-secreting spot-forming cells ex vivo (ELISPOT) (SFCs/10^6 cells) was 117.

What about the specific lysis of KMS-12-HHD cells (51Cr release assay) [4] of the same substance?
The specific lysis of KMS-12-HHD cells (51Cr release assay) was < 40%.
